From patent publication US20160297884A1 (Pfizer, published 2016) come the findings set out here.

Assay [1] concerns the target T1, Human BCMA (human, UniProt Q02223 1-54, limits assumed).
T1 construct: Soluble analyte in SPR; construct not described; also called huBCMA; B-cell maturation antigen
T1 sequence (looked up): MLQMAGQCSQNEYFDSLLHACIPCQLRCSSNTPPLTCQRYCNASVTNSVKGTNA
The assay is described as follows: SPR, IgG immobilised, 37 C. The procedure, abridged:
(§1)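 Kinetic titration: huBCMA/cyBCMA 0.08–50 nM (5-fold steps), 2 min association per step, 2 h dissociation after top dose; HBS-T+ + 1 mg/mL BSA, 25 or 37° C; double-referenced, fit 1:1 Langmuir with mass transport.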
On the technique in general: In SPR one partner is held on a chip, and binding of the other changes the refractive index at the surface.

The next assay addresses T2, cynomolgus monkey BCMA (cynomolgus monkey, UniProt A0A2K5UD97 1-53).
T2 construct: Soluble analyte in SPR; construct not described; also called cyBCMA; Cyno BCMA
The assay is described as follows: SPR, IgG immobilised, 37 C. The procedure, abridged:
as §1

The target in assay [2] is T1, Human BCMA. The assay can be described thus: SPR, IgG immobilised, 37 C; huBCMA @25° C.

T2 sequence (A0A2K5UD97 entry or part of it): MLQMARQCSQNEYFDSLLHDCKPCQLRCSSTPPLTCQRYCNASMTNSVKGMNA

B1: L3.PY/L1.PS/H2.QR (antibody, V domains shown)
VH: EVQLLESGGGLVQPGGSLRLSCAASGFTFGSYAMTWVRQAPGKGLEWVSAISGSGGNTFYADQRKGRFTISRDNSKNTLYLQMNSLRAEDTAVYYCARVSPIASGMDYWGQGTLVTVSS
VL: EIVLTQSPGTLSLSPGERATLSCRASQSVSSSYPSWYQQKPGQAPRLLIYGASSRATGIPDRFSGSGSGTDFTLTISRLEPEDFAVYYCQHYPYPPSFTFGQGTKVEIK
notes: IgG
Usually Kd stands for a measure of binding affinity in units of concentration. As a reminder, the kon is the second-order rate constant of association. For orientation: koff means the rate constant with which the complex falls apart. In the case of B1, in the assay with Human BCMA [1], binding was characterised by a dissociation constant (Kd) of 25.9 nM, the “T ½” value came to 0.11 min and the on-rate (kon) came out at 3.97e+06 M⁻¹ s⁻¹. In the assay with cynomolgus monkey BCMA, the affinity, expressed as Kd, was 1.28 nM; the “T ½” value turned out to be 17.2 min; the koff worked out at 0.00067 s⁻¹; the kon is 525000 M⁻¹ s⁻¹. In addition, the koff with Human BCMA [2] came to 0.103 s⁻¹.
